Reference: the supplement of paper PMC11136658

System: peptide library, one residue held at a place counted from the Y acceptor
Assay: relative phosphorylation of the sub-library (ratio to the mean residue at this position); higher = residue favoured
Method in brief: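 Purified recombinant kinases were given 50 μM ATP with γ-32P-ATP and biotinylated Tyr-centred peptide library mixtures for 90 min in 384-well plates. Peptides bound to streptavidin membranes were rinsed and quantified by phosphorimaging, and intensities were normalized per position by the sum of the 18 randomized residues (16 with the Ser/Thr-free library) and multiplied by that number. The reported values are phosphorylation relative to the mean randomized residue.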

Sequence of ERBB4, construct: aa682-993, human (Q15303 682-993, looked up): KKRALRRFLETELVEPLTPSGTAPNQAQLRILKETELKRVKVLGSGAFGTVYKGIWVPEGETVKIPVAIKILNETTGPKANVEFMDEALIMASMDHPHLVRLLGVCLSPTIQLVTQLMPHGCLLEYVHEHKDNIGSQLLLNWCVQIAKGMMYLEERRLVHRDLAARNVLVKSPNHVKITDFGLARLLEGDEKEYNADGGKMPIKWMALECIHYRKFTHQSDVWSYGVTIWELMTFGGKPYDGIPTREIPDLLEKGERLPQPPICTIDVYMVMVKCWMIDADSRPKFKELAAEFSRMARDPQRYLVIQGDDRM
Sequence of FER, construct: aa-541-end, human (P16591 whole entry, looked up): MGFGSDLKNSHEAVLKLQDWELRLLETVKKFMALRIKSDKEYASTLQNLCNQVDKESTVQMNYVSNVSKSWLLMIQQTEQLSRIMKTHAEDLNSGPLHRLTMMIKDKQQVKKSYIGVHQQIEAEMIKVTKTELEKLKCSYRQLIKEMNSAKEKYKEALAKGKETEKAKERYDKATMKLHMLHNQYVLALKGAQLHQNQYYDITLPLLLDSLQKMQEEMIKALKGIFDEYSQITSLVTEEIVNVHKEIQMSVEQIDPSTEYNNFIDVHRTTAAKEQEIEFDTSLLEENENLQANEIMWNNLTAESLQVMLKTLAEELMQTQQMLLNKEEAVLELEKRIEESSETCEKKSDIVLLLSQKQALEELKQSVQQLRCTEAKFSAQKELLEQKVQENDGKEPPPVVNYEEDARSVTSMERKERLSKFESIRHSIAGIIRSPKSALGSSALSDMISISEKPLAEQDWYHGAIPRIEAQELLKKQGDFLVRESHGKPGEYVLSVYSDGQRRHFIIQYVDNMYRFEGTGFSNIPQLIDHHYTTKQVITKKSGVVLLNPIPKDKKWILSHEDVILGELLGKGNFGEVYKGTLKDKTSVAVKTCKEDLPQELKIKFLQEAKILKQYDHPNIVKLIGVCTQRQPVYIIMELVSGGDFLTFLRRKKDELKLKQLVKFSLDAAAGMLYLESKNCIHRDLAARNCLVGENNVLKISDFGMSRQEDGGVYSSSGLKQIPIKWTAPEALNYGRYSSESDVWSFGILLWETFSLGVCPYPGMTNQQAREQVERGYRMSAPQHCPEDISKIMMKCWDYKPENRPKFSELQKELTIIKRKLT

ERBB4, construct: aa682-993, human (from UniProt Q15303)
relative phosphorylation
Conditions | at +1 | at +2 | at +3 | at +4 | at +5 | at -1 | at -2 | at -3 | at -4 | at -5
A fixed | 1 | 0.674 | 0.487 | 0.87 | 1.07 | 0.611 | 1.41 | 0.86 | 1.34 | 1.06
D fixed | 0.859 | 1.43 | 0.443 | 0.917 | 0.946 | 2.49 | 1.76 | 1.84 | 1.36 | 1.25
E fixed | 1.87 | 2.03 | 0.446 | 1.07 | 0.98 | 2.43 | 2.11 | 2.33 | 1.62 | 1.1
F fixed | 1.07 | 1.32 | 2.24 | 1.18 | 1.25 | 0.62 | 0.599 | 0.925 | 1.12 | 1.08
G fixed | 0.413 | 0.375 | 0.427 | 1.13 | 1.14 | 0.519 | 1.04 | 0.941 | 1.09 | 0.998
H fixed | 0.893 | 0.725 | 0.757 | 0.987 | 0.865 | 0.81 | 0.877 | 0.81 | 0.757 | 1
I fixed | 1.93 | 1.14 | 2.4 | 0.846 | 0.858 | 1.96 | 0.757 | 0.647 | 0.789 | 0.823
K fixed | 0.252 | 0.401 | 0.211 | 0.647 | 0.903 | 0.297 | 0.514 | 0.691 | 0.733 | 0.913
L fixed | 1.03 | 0.97 | 1.97 | 0.758 | 1.01 | 1.21 | 0.826 | 0.859 | 0.931 | 0.936
M fixed | 1.12 | 0.975 | 1.43 | 0.922 | 0.959 | 0.876 | 0.57 | 0.842 | 0.757 | 0.892
N fixed | 0.453 | 0.909 | 0.439 | 0.635 | 0.757 | 1.24 | 1.08 | 1.37 | 0.863 | 1.16
P fixed | 0.345 | 0.691 | 0.616 | 1.28 | 1.49 | 0.503 | 1.22 | 0.964 | 1.14 | 0.907
Q fixed | 1.09 | 0.79 | 0.475 | 0.838 | 0.757 | 0.955 | 1.12 | 0.962 | 1.45 | 1.23
R fixed | 0.318 | 0.58 | 0.328 | 0.769 | 0.864 | 0.333 | 0.508 | 0.602 | 0.65 | 0.897
S fixed | 0.678 | 0.839 | 0.6 | 1.06 | 1.13 | 0.506 | 1.03 | 0.981 | 0.882 | 0.903
T fixed | 1.1 | 1.05 | 0.563 | 0.87 | 1.02 | 1.01 | 0.872 | 0.924 | 0.537 | 0.79
V fixed | 2.46 | 1.2 | 1.46 | 0.93 | 0.911 | 1.11 | 1.16 | 0.697 | 0.836 | 0.815
W fixed | 1.11 | 1.9 | 2.71 | 2.28 | 1.09 | 0.522 | 0.541 | 0.759 | 1.13 | 1.25
pThr fixed | 2.75 | 2.29 | 0.524 | 1.01 | 1.01 | 3.76 | 2.43 | 2.64 | 1.41 | 1.21
pTyr fixed | 15.4 | 5.38 | 1.12 | 1.4 | 1.13 | 2.48 | 2.59 | 2.35 | 1.62 | 1.31

FER, construct: aa-541-end, human (from UniProt P16591)
relative phosphorylation
Conditions | at +1 | at +2 | at +3 | at +4 | at +5 | at -1 | at -2 | at -3 | at -4 | at -5
A fixed | 1.7 | 0.886 | 0.866 | 0.927 | 1.07 | 0.942 | 1 | 0.818 | 1.1 | 1.05
D fixed | 1.32 | 0.911 | 0.521 | 0.838 | 0.592 | 1.12 | 1.15 | 1.29 | 1.31 | 1.22
E fixed | 2.5 | 1.28 | 0.611 | 1.42 | 0.604 | 1.19 | 1.48 | 1.74 | 1.62 | 1.13
F fixed | 0.517 | 1.27 | 1.41 | 1.11 | 1.29 | 1.45 | 0.696 | 0.988 | 1.05 | 0.972
G fixed | 1.24 | 0.645 | 0.606 | 0.94 | 0.882 | 0.427 | 1.09 | 1.1 | 1.12 | 1.17
H fixed | 0.647 | 0.83 | 1.93 | 1.12 | 0.933 | 1.52 | 1.1 | 1.07 | 0.885 | 0.982
I fixed | 0.832 | 1.03 | 1.73 | 0.911 | 1.14 | 1.85 | 0.934 | 0.804 | 0.92 | 1.01
K fixed | 0.31 | 0.646 | 0.36 | 0.941 | 0.58 | 0.357 | 0.735 | 0.617 | 0.798 | 0.831
L fixed | 0.71 | 1.15 | 1.06 | 0.874 | 1.31 | 1.43 | 0.916 | 0.84 | 0.958 | 0.977
M fixed | 0.969 | 0.973 | 1.12 | 1.29 | 1.08 | 1.06 | 0.76 | 1.01 | 0.93 | 1.06
N fixed | 0.751 | 1.18 | 0.836 | 0.923 | 0.708 | 0.983 | 1.26 | 1.35 | 0.973 | 1.12
P fixed | 0.323 | 0.867 | 0.89 | 0.873 | 2.09 | 1.05 | 1.05 | 0.971 | 1.08 | 1.02
Q fixed | 1.48 | 0.878 | 0.658 | 1.11 | 0.846 | 0.73 | 1.18 | 0.859 | 1.14 | 1.05
R fixed | 0.35 | 0.737 | 0.547 | 1.12 | 0.721 | 0.309 | 0.901 | 0.762 | 0.757 | 0.898
S fixed | 1.42 | 0.917 | 0.82 | 0.766 | 0.999 | 0.619 | 1.1 | 1 | 0.794 | 0.849
T fixed | 1.14 | 0.96 | 0.839 | 0.775 | 1.05 | 0.866 | 0.932 | 0.997 | 0.664 | 0.824
V fixed | 1.13 | 0.929 | 1.34 | 0.922 | 1.19 | 1.29 | 0.897 | 0.788 | 0.825 | 0.807
W fixed | 0.667 | 1.91 | 1.86 | 1.14 | 0.931 | 0.809 | 0.824 | 0.981 | 1.07 | 1.04
pThr fixed | 1.55 | 1.12 | 0.721 | 0.549 | 0.543 | 1.14 | 1.18 | 1.26 | 1.2 | 1.09
pTyr fixed | 2 | 1.26 | 1.01 | 0.849 | 0.471 | 3.56 | 1.58 | 1.81 | 1.63 | 1.13
